# Results taken from the DeepSol protein solubility set.
# Experiment: soluble on expression in E. coli; label from the status in PepcDB or PDB records
row,Sequence,soluble on expression in E. coli
1,MQPHPETTPVTSCTIIDATDRSIRQTLGETSTLARLIWVDAGLASPPLCSGLARCGRCRVRITEAAPAPHEDDREFFSAEDISAGWRLACRHAPAHGMVVHVPLPVMPHRHASRPKHPGPFRLAVDLGTTSLQWSLLAPDGTVAAQGSETNPQMGAGSDVMSRIAMARSDKGRGRLRELVLQALRRIVADVEGTPATADAVPPAGSGDEPTTACGYESRVEELCVAGNTAMTAILADESVEGLASAPYRLEMRGGTALALPGLPPAWIPPLPAPFVGGDLSAGYLAVLTDHAPAFPFVLADLGTNGEFVLALSPERTLVTSVALGPALEGIGLTFGTVAQRGAITSFTLTPGGLVPYVLDGGEADGISGTGYISLVHALLRAGLLDVDGRFIQSPSSPLAARMARSIVSHRGEPCLPLARGLYLAARDIEEILKVKAAFSLAFERLLATAQMPSHALSGIHLAGALGQHALPADLEGLGFIPPGSGGRTRAVGNTSLRGAELLLTSPPLRDTLNTWREGCTVVDLTAAPDFSAAFLRHMHFHFLEHHHHHH,soluble
2,MYNITLPVLGTRLKQIREHVGYSQAQLAEQLNCKQNAISNLELGKGGSLKLLFQVLNFYSNYVFIDLIFSEKFYLISNTEEDEAQKANYNSVIIEIIRQSEKNYENAMSNAKKELEANLQKAINLLQP,not soluble
3,MKPKLILMSHGRMAEETLASTQMIVGELADAAIVSMTAEDGLSGTQAKLAAILKEAGNVPTLVLADLKGGTPCNVAMMAMGTYPQLRVVAGLNLAMAIEAAVSPVENVDELAAYLTQIGQSAVTTIDLPELTDEEEFEE,soluble
4,MGSDKIHHHHHHKESGSLLNLLTDAEIERTEKIVISGNGLEEKDFAVLKAMLIRHALREVDIENTSTRAITERAFEGCSNLSAIKLPKYLVNTGWYAFEDCSGLMDIELPVSVETIANSFRGCSSLTSITLGRRVKSLDSQSFYLCSNLREVHCKGSIPPSCKQDSFKGLYETCTLYVPEGCKRDYTFADGWLNFGNIREEYVEPALSLRVNLEGGTFAWQLYPLYDGNGGIIVNHFYPGQDYLIDVEKGETIVFHIAEENTYFSNWKIDTILLNGEDITSQVTENDLLYLNIDRDSKLEIVMKDLSVTSNDVIENPQDIKISTLDNKVLIQNITTGERVNVYNVLGVLVHSVVVEAMDYEVQLPKGEIYLIQIGKKTVKLKL,not soluble
5,GSHMPSRRMLHTMIRVGDLDRSIKFYTERLGMKVLRKWDVPEDKYTLVFLGYGPEMSSTVLELTYNYGVTSYKHDEAYGHIAIGVEDVKELVADMRKHDVPIDYEDESGFMAFVVDPDGYYIELLNEKTMMEKAEADMKEQGTA,soluble
6,MTVELKNEYLTVLINEAGAELSSVKSSDGIEYMWQADKTFWGRHAPVLFPIVGRLKDDQYTVAGQAYHMGQHGFARDNDFTVVNQTATQATFELTDSRATREMYPYAFRLRLIYTLTDHELTVNYNVHNPANQELLFSVGGHPAFNVPLADPAGTLADYKITVAPRKVYAHIPLQAPLNDAANADDFDLTKPLALSRDLFKDDALILDLNHHETTLMLDTDLDDHGVAMTIEDAPYVGMWSPYPAEAPFVCLEPWWGIADNVDSDGQLSHKMGINRLAANQTFDAKYAISFFLEHHHHHH,not soluble
7,MLIRKITRKNPSPDVLEEAISVMEGGGIVIYPTDTIYGLGVNALDEDAVRRLFRVKGRSPHKPVSICVSCVDEIPRFSRPSGDAMELMERILPGPYTVVLERNELIPDVITGGSSRVGIRVPDDEICRRIAARFPVTATSANISGKPPSPRLEEIVRDLDAVDLVLDAGDCLDMEPSTVIDLTVNPPRVLRRGKGPLDPVLLRGAGDV,soluble
8,MLKCVMSGSQVKVFGKAVQALSRISDEFWLDPSKKGLALRCVNSSRSAYGCVLFSPVFFQHYQWSALVKMSENELDTTLHLKCKLGMKSILPIFRCLNSLERNIEKCRIFTRSDKCKVVIQFFYRHGIKRTHNICFQESQPLQVIFDKNVCTNTLMIQPRLLADAIVLFTSSQEEVTLAVTPLNFCLKSSNEESMDLSNAVHSEMFVGSDEFDFFQIGMDTEITFCFKELKGILTFSEATHAPISIYFDFPGKPLALSIDDMLVEANFILATLADEQSRASSPQSLCLSQKRKRSDLIEKKAGKNVTGQALECISKKAAPRRLYPKETLTNISALENCGSPAMKRVDGDVSEVSESSVSNTEEVPGSLCLRKFSCMFFGAVSSDQQEHFNHPFDSLARASDSEEDMNNGSFSIFLEHHHHHH,not soluble
9,MGSDKIHHHHHHMTLRISQLAQKFGLSRSTLLYYEKQGLIRGRRLDNGYRVYSENDLQRLILIQKLQAGGLTLKECLACLDARIDKALLQTRLAELDADIAQKQASRTLLAALLGEGDLKAWHESLTKEAPEAHLDWLQTQGFSEKEALHLTWLSKDMNEHDKFMADFMQIFSPLTRWAPGSEADTLKALASVPLTPTRILDIGCGKGLATRMLAKHTKASITAIDNEEDALTELQQHLQHRNLASRVSTLCASMTDIPLPAASADLIWAEGSAYIMGVEQALKSWRKLLVDNGVLVLSDLVWLTDDKAPEAVAFWQQDYPAMTSVEARMAQMQAAGFEVIDSFSLSNEAWKSFTGPLAARVDEVSEQLAGSQALANVQRELGIFSRFLGQFGYQFFVLQKRG,not soluble
10,MFQFQFPLYNDIVEQARREAVEAGFEELRTPEDVDAAFRRPGTTLVLINSVCGCAGGIARPAAAHAVHYDKRPDHLVTVFAGQDKEATARAREYFVGEPPSSPSFALLKDGKLCAMLHRHDIEGHEPVAVVQKLQALFDEYCEEV,not soluble
11,MESRKLISATDIQYSGSLLNSLNEQRGHGLFCDVTVIVEDRKFRAHKNILSASSTYFHQLFSVAGQVVELSFIRAEIFAEILNYIYSSKIVRVRSDLLDELIKSGQLLGVKFIAAL,soluble
12,MSAATPLIVQQAEAEQLLARIDVLQAMRQLFLDLAAGQALQPAQQLVEFPAGRGDFINYLGVLAQEQVYGVKTSPYIVREQGPLVTAWTLLMSMQTGQPLLLCDAARLTTARTAATTAVAVDALAPAEACRLALIGSGPVAHAHLQYVKGLRDWQGVRVHSPCLDERRLQSLRAIDPRAEAAGSLEEALDEADVILLCTSSARAVIDPRQLKRPALVTSISTNAPRAHEVPAESLAAMDVYCDYRHTTPGSAGEMLIAAEQHGWSPEAIRGDLAELLSAQAPRPEYRRPAFFRSIGLGLEDVALANALYRLRQAG,not soluble
13,MFTGLHDILIILFLLVTLKIAQNVDHTKFLQKYGYLTSGDNQLSSESLSDALKNMQRMAGLEETGELDERTIQMMERPRCGHPDVEDHQKSRGKRYAPPQFKWKEKIITYGCKAVGTSTRISLDDLRRTMHQAASQWSELADVEIVESSVKNPMMVISAGRENHYPCTVRFDTKTLAHAFFPTNGQIHINDRVQFAMTNYTERMGANSLYSVVAHEMGHALGFSHSPDIDSVMFAYDTPRKWKFTSMDKYNMRSYYGAKASKKENEEEERKTENEDKRRKTEKDRGRTREHESDDIRPNECRVENPIVVQYRGEYLIFKSQWVWRVSSDWKRLIIKAVPINQLFPGLPNPIDAAVTVGHNLWVFVGEMIYVIYGNHMVHAPLRLSDIGINEKYVDLAYEWHYFNPPAVYIWKGSRYWKLDEKMYHRRVDERYPKDTDLNWARVPKGVHSAFTYEKEIHLLRGNQVFRMNSSRSVFDIADGYPQPLQSFFGFCPRNEKLVLNSSSSHFSLIYATITILILIF,not soluble
14,GPGSMACLSRIDANLLQYYEKPEPNNTVDLYVSNNSNNNGLKEGDKSISTPVPQPYGSEYSNCLLLSNSEYICYHFSSRSTLLTFYPLSDAYHGKTINIHLPNASMNQRYTLTIQEVEQQLLVNVILKDGSFLTLQLPLSFLFSSANTLNGEWFHLQNPYDFTVRVPHFLFYVSPQFSVVFLEDGGLLGLKKVDGVHYEPLLFNDNSYLKSLTRFFSRSSKSDYDSVISCKLFHERYLIVLTQNCHLKIWDLTSFTLIQDYDMVSQSDSDPSHFRKVEAVGEYLSLYNNTLVTLLPLENGLFQMGTLLVDSSGILTYTFQNNIPTNLSASAIWSIVDLVLTRPLELNVEASYLNLIVLWKSGTASKLQILNVNDESFKNYEWIESVNKSLVDLQSEHDLDIVTKTGDVERGFCNLKSRYGTQIFERAQQILSENKIIMAHNEDEEYLANLETILRDVKTAFNEASSITLYGDEIILVNCFQPYNHSLYKLNTTVENWFYNMHSETDGSELFKYLRTLNGFASTLSNDVLRSISKKFLDIITGELPDSMTTVEKFTDIFKNCLENQFEITNLKILFDELNSFDIPVVLNDLINNQMKPGIFWKKDFISAIKFDGFTSIISLESLHQLLSIHYRITLQVLLTFVLFDLDTEIFGQHISTLLDLHYKQFLLLNLYRQDKCLLAEVLLKDSSEFSFGVKFFNYGQLIAYIDSLNSNVYNASITENSFFMTFFRSYIIENTSHKNIRFFLENVECPFYLRHNEVQE,soluble
15,MSLRDESRLDKYVIKEILRINRHLPRRRKTLEELLREERPHVVNRDGTKHYFDRDELERLADILPRYLHGRLKLPILIELGYSGAAVIRGKAEVRVVCEVLGEEWRFSQDRVELNMLDVRKLRREFPTATQYMFSTEYIMGRPKVERREGHHHHHH,soluble
16,MGSDKIHHHHHHMKIAFDAKRITHNATGLGNYSRFVVNSLSASFPEHTYQLYTPGKGKEALRKRIEERPSVSFHYPEGRFDKLFPSLWRTSGLTATLRKEHVDLFHGLSNEIPMNLKQNGIPAVVTIHDLIFLRYPQLYKPIDRSIYTYKFKQACLRSDKIIAISRQTMRDIRDFFHIPESKIEVVYQGCDPIFGQAVQEDVKSSVREKYQINGPYILYVGSIEERKNLLLLVKALKKLKEDISVIAIGKHTPYTDTVETYIRENNLSGRVHILTHIPFNELAAFYQMATLFVYPSFFEGFGIPILEAQLAGIPVIAATGSCLEEAGGPSALYTDPRNEQELRGLIESVLNEPKLAESMRSGGRENIRRFMPDVLAAHFMRVYENISRS,not soluble
17,MRILSLSFSNLNSLKGEWKIDFSASPFAENGLFAITGPTGAGKTTILDAICLALYHKTPRLGGISTSSNEIMTRGTAECSAEVEFEVKGKAYRAFWSQRRSRGKVDGNLQAATVELAEVDSEKVLATQVKKKDELINTITGLDFSRFTKSMMLSQGQFAAFLNADANDRAGLLEELTGTEIYGQISEKVHEHYTASKQKLAELKAKAEGVELLSEEDKQALIDEQTELQANQKQQQAQL,not soluble
18,MGSDKIHHHHHHMNRVVVGLQWGDEGKGKVVTYLSRYHDIVARFSGGANAGHTVNYGDFKVIHHLLPSADFTKNRGIAIGSGVLLDPQVLTEELRELKEKFPDYSGEIFISESAHVVLPVHKEMDRIIDEVLKIGTTKRGIGPACADRVMRVNVRVAELGNEEKLRYFLEKNLSLKKIYGVDFDAEKMMGDLSTFYETIKDFVVSPVQLKRILEEKSVLFEGTQGVLLDLDVGTYPYVTSMNCSSSGVSAGMGFPVEVDEVLGVFKAYTTRVGEGPFPTELTGEEGEKLRKAGHEYGSTTGRPRRCGWLDLPLLRYAIEISGVDSLVMTKADVLNGFEKIKVCVRYSDGRDLVSLRDLEKKEPVYEVFDGWKSLEDKNFERFVDFIERETGRPVRYISTGEKLEDIVEV,not soluble
19,MGSDKIHHHHHHMNETGLLDAYGTEEKEAYIGVIASIATADRVATEDELEYLNALSEAVGINPDVAEAAAKDRSDESLSKYLNALKGSDLRFSLITDIVSFARSDGRYTADEEEKIKNSCRYLGITDEQVTVLEELVEKSNILITIPEEATDEGFFEKNGFSQMLKKANIPLISIVKGLLGLAAPFVLSKMVRSRSLSGSPAAGGLGGQLGGTVLGTFQAGRIGGLGSILANLNGIRGYADIGTILKKAIDKKEINS,not soluble
20,MQSFTADINEINITNGKLDFSDSSLTPKFSAGIYSLNGDITGLSSNEDSRAKIDLKGKVDKYAPVIIKGSVNPLSHDAFTDIDMLFNGIELTTFTPYSGKFAGYAIDKGKLSLGLNYKLSNNKLVAENNVTLDQLTLGEVVNSEEATSLPIKFALSLLEHHHHHH,not soluble
